Assay [1] has as its target T1, MERS Receptor Binding Domain (RBD) protein (MERS virus, UniProt K9N5Q8 367-606).
T1 construct: also called Middle East Respiratory Syndrome (MERS) virus
T1 sequence: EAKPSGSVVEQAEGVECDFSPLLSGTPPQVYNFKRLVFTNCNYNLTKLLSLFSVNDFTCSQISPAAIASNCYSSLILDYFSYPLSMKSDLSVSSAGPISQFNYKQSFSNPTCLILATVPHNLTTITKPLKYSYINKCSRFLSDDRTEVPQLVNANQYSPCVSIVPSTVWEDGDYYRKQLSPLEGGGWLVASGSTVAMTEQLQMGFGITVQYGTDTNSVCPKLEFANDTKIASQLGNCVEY
The assay can be described thus: SPR; clone listed as COV2 only at the 21st table, row 35, column 3. In general terms: Surface plasmon resonance follows binding to a sensor surface in real time, without labels.

Assay [2] concerns the target T2, SARS-CoV-1 Receptor Binding Domain (RBD) protein (SARS-CoV-1, UniProt P59594 306-527).
T2 construct: also called SARS1
The assay is described as above.

Assay [3] deals with SARS-CoV-2 Receptor Binding Domain (RBD) protein (SARS-CoV-2, UniProt P0DTC2 319-541).
Assay [4] has as its target T1, MERS Receptor Binding Domain (RBD) …. The assay can be described thus: SPR; clone listed as COV2 only at the 21st table, row 8, column 3.
Assay [5] has as its target T2, SARS-CoV-1 Receptor Binding Domain …. The assay is described as above.
Assay [6] addresses T1, MERS Receptor Binding Domain (RBD) …. The assay can be described thus: SPR; clone listed as COV2 only at the 21st table, row 27, column 3.
The target of assay [7] is T2, SARS-CoV-1 Receptor Binding Domain …. The assay is described as above.
Assay [8] addresses T1, MERS Receptor Binding Domain (RBD) …. The assay can be described thus: SPR; clone listed as COV2 only at the 21st table, row 28, column 3.
Assay [9] addresses T2, SARS-CoV-1 Receptor Binding Domain …. Described as above.
The target in assay [10] is T1, MERS Receptor Binding Domain (RBD) …. The assay can be described thus: SPR; clone listed as COV2 only at the 21st table, row 30, column 3.
For assay [11], the target named is T2, SARS-CoV-1 Receptor Binding Domain …. The description is as above.
The target of assay [12] is T1, MERS Receptor Binding Domain (RBD) …. The assay can be described thus: SPR; clone listed as COV2 only at the 21st table, row 36, column 3.
For assay [13], the target named is T2, SARS-CoV-1 Receptor Binding Domain …. Described as above.
The target of assay [14] is T1, MERS Receptor Binding Domain (RBD) …. The assay can be described thus: SPR; clone listed as COV2 only at the 21st table, row 29, column 3.
Assay [15] has as its target T2, SARS-CoV-1 Receptor Binding Domain …. The assay is described as above.
For assay [16], the target named is T1, MERS Receptor Binding Domain (RBD) …. The assay can be described thus: SPR; clone listed as COV2 only at the 21st table, row 33, column 3.
Assay [17] concerns the target T2, SARS-CoV-1 Receptor Binding Domain …. The assay is described as above.
In assay [18] the target is T1, MERS Receptor Binding Domain (RBD) …. The assay can be described thus: SPR; clone listed as COV2 only at the 21st table, row 32, column 3.
For assay [19], the target named is T2, SARS-CoV-1 Receptor Binding Domain …. The description is as above.
For assay [20], the target named is T1, MERS Receptor Binding Domain (RBD) …. The assay can be described thus: SPR; clone listed as COV2 only at the 21st table, row 34, column 3.
The target of assay [21] is T2, SARS-CoV-1 Receptor Binding Domain …. The description is as above.
The target in assay [22] is T1, MERS Receptor Binding Domain (RBD) …. The assay can be described thus: SPR; clone listed as COV2 only at the 21st table, row 26, column 3.
The target of assay [23] is T2, SARS-CoV-1 Receptor Binding Domain …. The assay is described as above.

B1: COVID19_P21_F08 (scFv, V domains shown)
VH: QVQLVQSGAEVKKPGSSVKVSCKASGGTFSTYAFNWVRQAPGQGLEWMGVINTGGGSVTYAQKFQGRVTITADESTSTAYMELSSLRSEDTAVYYCAGGSGISTPGAVWGQGTLVTVSS
VL: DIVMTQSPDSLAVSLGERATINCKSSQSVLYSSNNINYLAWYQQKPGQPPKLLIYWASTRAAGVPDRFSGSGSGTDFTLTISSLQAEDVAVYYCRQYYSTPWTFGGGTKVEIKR
B1: in [1], the binding result was “no binding (tested: up to 300 nM)”. In addition, the binding result in assay [2] is listed as “no binding (tested: up to 300 nM)”. In [3], this molecule came in with a Kd of 16.3 nM, an off-rate (koff) of 0.000893 s⁻¹ and a kon of 54900 M⁻¹ s⁻¹.

B2: COVID19_P22_G12 (scFv, V domains shown)
VH: QVQLVQSGAEVKKPGSSVKVSCKASGGGFITYWIGWVRQAPGQGLEWMGIIYPGDSETRYSQKFQGRVTITADESTSTAYMELSSLRSEDTAVYYCAGGSGISTPMDVWGQGTLVTVSS
VL: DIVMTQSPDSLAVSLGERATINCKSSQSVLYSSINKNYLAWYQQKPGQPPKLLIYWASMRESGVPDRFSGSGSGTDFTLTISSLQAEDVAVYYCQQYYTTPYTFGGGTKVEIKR
As for B2, the binding result in assay [4] was “no binding (tested: up to 300 nM)”. Also, in [5], the binding result was “no binding (tested: up to 300 nM)”. In assay [3], the Kd worked out at 38.3 nM, the koff was 0.016 s⁻¹ and the kon is 410000 M⁻¹ s⁻¹.

B3: COVID19_P21_F11 (scFv, V domains shown)
VH: QVQLVQSGAEVKKPGSSVKVSCKASGGTFSSYAISWVRQAPGQGLEWMGIIYPGDSTARYSQKFQGRVTITADESTSTAYMELSSLRSEDTAVYYCAGGSGISTLYDVWGQGTLVTVSS
VL: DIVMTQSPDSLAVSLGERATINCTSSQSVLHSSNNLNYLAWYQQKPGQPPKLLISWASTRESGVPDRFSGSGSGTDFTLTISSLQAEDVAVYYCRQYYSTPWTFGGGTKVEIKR
For the molecule B3, the binding result in [6] is “no binding (tested: up to 300 nM)”. Besides, in [7], the binding result was “no binding (tested: up to 300 nM)”. For the same molecule, in [3], the Kd was at most 1.1 nM, the koff was at most 5.7e-05 s⁻¹ and the kon is 52300 M⁻¹ s⁻¹.

B4: COVID19_P09_G02 (scFv, V domains shown)
VH: QVQLVQSGAEVKKPGSSVKVSCKASGGTFSSYAISWVRQAPGQGLEWMGIIYPGDSTTNYSQKFQGRVTITADESTSTAYMELSSLRSEDTAVYYCAGHWGISTPMDVWGQGTLVTVSS
VL: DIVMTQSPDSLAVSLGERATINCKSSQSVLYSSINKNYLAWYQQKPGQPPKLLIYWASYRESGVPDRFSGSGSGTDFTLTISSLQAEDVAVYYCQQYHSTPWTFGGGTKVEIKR
Consider B4, for which the binding result in assay [8] is “no binding (tested: up to 300 nM)”. In addition, the binding result in assay [9] is listed as “no binding (tested: up to 300 nM)”. In assay [3], this molecule gave a Kd of 1.92 nM, a koff of 0.000262 s⁻¹ and a kon of 136000 M⁻¹ s⁻¹.

B5: COVID19_P10_B06 (scFv, V domains shown)
VH: QVQLVQSGAEVKKPGSSVKVSCKASGGTFSSYAISWVRQAPGQGLEWMGIIYPGDSTTRYSQKFQGRVTITADESTSTAYMELSSLRSEDTAVYYCYSGSGISTPMDVWGQGTLVTVSS
VL: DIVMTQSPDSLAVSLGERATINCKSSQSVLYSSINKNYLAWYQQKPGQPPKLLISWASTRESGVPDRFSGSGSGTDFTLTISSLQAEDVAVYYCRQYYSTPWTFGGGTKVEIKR
On to B5, for which the binding result in assay [10] is reported as “no binding (tested: up to 300 nM)”. Also, the binding result in [11] is reported as “no binding (tested: up to 300 nM)”. In [3], this molecule returned a dissociation constant Kd of 0.29 nM, a koff of 5.7e-05 s⁻¹ and a kon of 200000 M⁻¹ s⁻¹.

B6: COVID19_P09_A09 (scFv, V domains shown)
VH: QVQLVQSGAEVKKPGSSVKVSCKASGGTFSSYAISWVRQAPGQGLEWMGIIYPGDSTTRYSQKFQGRVTITADESTSTAYMELSSLRSEDTAVYYCYSGSGISTPMDVWGQGTLVTVSS
VL: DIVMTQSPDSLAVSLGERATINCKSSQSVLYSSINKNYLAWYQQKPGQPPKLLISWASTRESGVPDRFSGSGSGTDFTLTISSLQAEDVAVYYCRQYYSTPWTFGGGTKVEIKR
Take B6: in assay [3], the Kd is 0.5 nM, the koff was 5.7e-05 s⁻¹ and the kon came to 109000 M⁻¹ s⁻¹. Besides, the binding result in assay [12] was “no binding (tested: up to 300 nM)”. The binding result in assay [13] was “no binding (tested: up to 300 nM)”.

B7: COVID19_P09_E05 (scFv, V domains shown)
VH: QVQLVQSGAEVKKPGSSVKVSCKASGGTFSSYAISWVRQAPGQGLEWMGIIYPGDSTTRYSQKFQGRVTITADESTSTAYMELSSLRSEDTAVYYCYSGSGISTPMDVWGQGTLVTVSS
VL: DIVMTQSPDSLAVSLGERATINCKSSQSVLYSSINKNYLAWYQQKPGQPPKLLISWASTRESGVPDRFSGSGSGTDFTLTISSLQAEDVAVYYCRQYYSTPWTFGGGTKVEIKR
Regarding B7, the binding result in assay [14] is on record as “no binding (tested: up to 300 nM)”. For the same molecule, the binding result in assay [15] is given as “no binding (tested: up to 300 nM)”. In [3], this molecule registered a Kd of 0.2 nM, a koff of 5.7e-05 s⁻¹ and a kon of 305000 M⁻¹ s⁻¹.

B8: COVID19_P21_A12 (scFv, V domains shown)
VH: QVQLVQSGAEVKKPGSSVKVSCKASGGTFSSYAISWVRQAPGQGLEWMGSVIPVFGRPNYAQKFQGRVTITADESTSTAYMELSSLRSEDTAVYYCAGEWGISTPMDVWGQGTLVTVSS
VL: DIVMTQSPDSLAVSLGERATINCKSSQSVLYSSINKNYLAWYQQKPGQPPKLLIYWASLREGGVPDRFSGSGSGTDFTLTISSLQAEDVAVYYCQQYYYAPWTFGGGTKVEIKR
In assay [3], B8 displayed a Kd of 6.01 nM, a koff of 0.000911 s⁻¹ and an on-rate (kon) of 152000 M⁻¹ s⁻¹. The binding result in [16] is given as “no binding (tested: up to 300 nM)”. For the same molecule, in [17], the binding result is recorded as “no binding (tested: up to 300 nM)”.

B9: COVID19_P21_F04 (scFv, V domains shown)
VH: QVQLVQSGAEVKKPGSSVKVSCKASGGTFSSYAISWVRQAPGQGLEWMGQINPSGDSTRYAQKFQGRVTITADESTSTAYMELSSLRSEDTAVYYCAGGSGISTPMDVWGQGTLVTVSS
VL: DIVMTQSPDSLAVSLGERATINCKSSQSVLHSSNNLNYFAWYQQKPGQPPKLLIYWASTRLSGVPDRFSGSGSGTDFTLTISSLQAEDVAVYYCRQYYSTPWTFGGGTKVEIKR
Regarding B9, the binding result in [18] is listed as “no binding (tested: up to 300 nM)”. Besides, the binding result in [19] is on record as “no binding (tested: up to 300 nM)”. Besides, in [3], binding was characterised by a dissociation constant (Kd) of 8.81 nM, the koff came out at 0.00037 s⁻¹ and the kon was determined as 41900 M⁻¹ s⁻¹.

B10: COVID19_P21_B08 (scFv, V domains shown)
VH: QVQLVQSGAEVKKPGSSVKVSCKASGGTFSSYAISWVRQAPGQGLEWMGVINTGGGSVTYAQKFQGRVTITADESTSTAYMELSSLRSEDTAVYYCAGHWGISTPMDVWGQGTLVTVSS
VL: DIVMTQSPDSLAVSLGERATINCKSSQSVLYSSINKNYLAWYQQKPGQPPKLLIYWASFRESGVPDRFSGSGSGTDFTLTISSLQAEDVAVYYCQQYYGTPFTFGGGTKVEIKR
Consider B10, for which the binding result in [20] is “no binding (tested: up to 300 nM)”. Also, the binding result in assay [21] was “no binding (tested: up to 300 nM)”. In assay [3], this molecule had a Kd of 2.95 nM, a koff of 0.000344 s⁻¹ and a kon of 117000 M⁻¹ s⁻¹.

B11: COVID19_P09_C09 (scFv, V domains shown)
VH: QVQLVQSGAEVKKPGSSVKVSCKASGGTFSSYAISWVRQAPGQGLEWMGIIDPSGGSTSYAQQFQGRVTITADESTSTAYMELSSLRSEDTAVYYCAGGSGISTPMDVWGQGTLVTVSS
VL: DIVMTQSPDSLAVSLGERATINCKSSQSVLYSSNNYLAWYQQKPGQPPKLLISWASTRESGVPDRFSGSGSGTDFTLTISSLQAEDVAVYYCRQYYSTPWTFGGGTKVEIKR
As to B11, in assay [22], the binding result is “no binding (tested: up to 300 nM)”. Besides, the binding result in assay [23] was “no binding (tested: up to 300 nM)”. For the same molecule, in assay [3], the Kd came to 0.99 nM, the dissociation rate constant (koff) was 0.000261 s⁻¹ and the kon amounted to 264000 M⁻¹ s⁻¹.

Usually Kd stands for the concentration at which binding is half-saturated. A higher Kd goes with a looser complex. For orientation: koff means the first-order rate constant of dissociation. A lower koff goes with a long-lived complex. Broadly, the kon is the second-order rate constant of association. A lower kon goes with slow association.

For the origin of these results see patent publication US11034762 (CENTIVAX, dated 2021).
